Drawing on patent publication US20150376282A1, this text covers Kd, percentage molecules present as monomers and percent monomeric for 4 molecules.

Experiment [1] has as its target 2F8-HG (human). Nature of the experiment: non-covalent nano-ESI MS, monomer/dimer equilibrium (CH3-CH3 dimerisation of half-molecules).
For experiment [2], the target named is 2F8-HG (human). The experiment in a line: non-covalent nano-ESI MS, 1 µM, self-association.
Experiment [3] has as its target 2F8-HG-L236V (human). Nature of the experiment: non-covalent nano-ESI MS, 0.01-10 µM, self-association.
Experiment [4] addresses 2F8-HG-Y275A (human). The description is as above.
In experiment [5] the target is 2F8-HG-F405A (human). Described as above.

One may read the Kd as the concentration at which binding is half-saturated. A higher Kd goes with lower affinity. In experiment [1], 2F8-HG (antibody) had a Kd of 0.05 µM. Besides, the percentage molecules present as monomers in experiment [2] is 15%.
Regarding 2F8-HG-L236V (antibody), the percent monomeric at low concentrations in experiment [3] was 100%.
In experiment [4], 2F8-HG-Y275A (antibody) returned a percent monomeric at low concentrations of 100%.

B1: 2F8-HG-F405A (antibody, part only; not given: 2F8 VH and light chain, part only)
heavy, part: ASTKGPSVFPLAPCSRSTSESTAALGCLVKDYFPEPVTVSWNSGALTSGVHTFPAVLQSSGLYSLSSVVTVPSSSLGTKTYTCNVDHKPSNTKVDKRVAPEFLGGPSVFLFPPKPKDTLMISRTPEVTCVVVDVSQEDPEVQFNWYVDGVEVHNAKTKPREEQFNSTYRVVSVLTVLHQDWLNGKEYKCKVSNKGLPSSIEKTISKAKGQPREPQVYTLPPSQEEMTKNQVSLTCLVKGFYPSDIAVEWESNGQPENNYKTTPPVLDSDGSFALYSRLTVDKSRWQEGNVFSCSVMHEALHNHYTQKSLSLSLGK
The molecule B1 displayed a percent monomeric at low concentrations in experiment [5] of 100%.
